Data: patent US20020143164A1, “Ras activator nucleic acid molecules, polypeptides and methods of use” (priority 1999, published 2002)

What was measured:
Ras = Ras activation assay in living cells, GRF4 and deletion mutants expressed in HEK-293T cells; format: cell-based, human; conditions: HEK-293T cells treated with 8-Br-cAMP
Description: HEK-293T cells were transfected with vector alone, GRF4 (WT), GRF4 lacking its cNMP-BD (ΔcNMP-BD) or its CDC25 domain (ΔCDC25), and then treated (or not) with 8-Br-cAMP. Cell lysates were then incubated with GST-Raf1-RBD to precipitate active Ras, and immunobloited with anti Ras antibodies as above (upper panel). Lower panels are controls for total endogenous Ras and transfected GRF4 or its mutants.
Flag, HA or myc tags was added to the N-terminus of full length GRF4 using PCR, and subcloned into the mammalian expression vector pCMV5 (Invitrogen). Mutants GRF4 with deletion of the CDC25 domain (residue 711-1007, GRF4DCDC25 or DCDC25 for short), the cNMP-BD (residue 134-254, DcNMP-BD), the PLPF motif in the PDZ domain (residue 396-399, -PLPF), or bearing mutations in the PDZ-binding motif (SAV to AAA), were generated using PCR. The GST-GRF4-cNMP-BD (residue 101-303) and GST-Carboxy-terminus (residue 1348-1499) were PCR-generated and cloned into pGEX-2T ( Pharmacia). The latter construct was used to generate a fusion protein (GST-GRF4C terminus) which was used to immunize rabbits for the generation of polyclonal anti GRF4 antibodies.
HEK-293T cells were transfected as above, serum starved overnight and then subjected to various treatments, as described in the text. […] GTP in the lysates was determined using activation specific probes as described. Briefly, to determined the levels of active Ras (Ras-GTP) in cell, sepharose-bound GST fusion protein of the Ras-binding domain (RBD) of Raf-1 (GST-Raf1-RBD; Upstate Biotechnology Inc.) was used to precipitate Ras-GTP from cell lysates, and the amount of Ras-GTP determined by immunoblotting with anti Ras antibodies (Quality Biotech). Similarly, to determine the level of Rap1-GTP in cell lysates, sepharose-bound GST fusion proteins of the Rap1-binding domain of RaIGDS (GST-RaIGDS-RBD) were used to precipitate Rap1-GTP, which was then detected on a Western blot using anti-Rap1 antibodies (Transduction Lab).

GRF4 = molecular target: T1, GRF4 (Homo sapiens, UniProt Q9Y4G8, DEL134-254); test: Activation of Ras and MAPK by cNMP analogues in GRF4-transfected HEK-293T cells; format: cell-based; conditions: HEK-293T cells
T1 construct: Flag, HA or myc tags was added to the N-terminus of full length GRF4 using PCR; expressed in transfected cells; host or cells: HEK-293T
T1 sequence (Q9Y4G8 with tags, fused parts or gaps DEL134-254): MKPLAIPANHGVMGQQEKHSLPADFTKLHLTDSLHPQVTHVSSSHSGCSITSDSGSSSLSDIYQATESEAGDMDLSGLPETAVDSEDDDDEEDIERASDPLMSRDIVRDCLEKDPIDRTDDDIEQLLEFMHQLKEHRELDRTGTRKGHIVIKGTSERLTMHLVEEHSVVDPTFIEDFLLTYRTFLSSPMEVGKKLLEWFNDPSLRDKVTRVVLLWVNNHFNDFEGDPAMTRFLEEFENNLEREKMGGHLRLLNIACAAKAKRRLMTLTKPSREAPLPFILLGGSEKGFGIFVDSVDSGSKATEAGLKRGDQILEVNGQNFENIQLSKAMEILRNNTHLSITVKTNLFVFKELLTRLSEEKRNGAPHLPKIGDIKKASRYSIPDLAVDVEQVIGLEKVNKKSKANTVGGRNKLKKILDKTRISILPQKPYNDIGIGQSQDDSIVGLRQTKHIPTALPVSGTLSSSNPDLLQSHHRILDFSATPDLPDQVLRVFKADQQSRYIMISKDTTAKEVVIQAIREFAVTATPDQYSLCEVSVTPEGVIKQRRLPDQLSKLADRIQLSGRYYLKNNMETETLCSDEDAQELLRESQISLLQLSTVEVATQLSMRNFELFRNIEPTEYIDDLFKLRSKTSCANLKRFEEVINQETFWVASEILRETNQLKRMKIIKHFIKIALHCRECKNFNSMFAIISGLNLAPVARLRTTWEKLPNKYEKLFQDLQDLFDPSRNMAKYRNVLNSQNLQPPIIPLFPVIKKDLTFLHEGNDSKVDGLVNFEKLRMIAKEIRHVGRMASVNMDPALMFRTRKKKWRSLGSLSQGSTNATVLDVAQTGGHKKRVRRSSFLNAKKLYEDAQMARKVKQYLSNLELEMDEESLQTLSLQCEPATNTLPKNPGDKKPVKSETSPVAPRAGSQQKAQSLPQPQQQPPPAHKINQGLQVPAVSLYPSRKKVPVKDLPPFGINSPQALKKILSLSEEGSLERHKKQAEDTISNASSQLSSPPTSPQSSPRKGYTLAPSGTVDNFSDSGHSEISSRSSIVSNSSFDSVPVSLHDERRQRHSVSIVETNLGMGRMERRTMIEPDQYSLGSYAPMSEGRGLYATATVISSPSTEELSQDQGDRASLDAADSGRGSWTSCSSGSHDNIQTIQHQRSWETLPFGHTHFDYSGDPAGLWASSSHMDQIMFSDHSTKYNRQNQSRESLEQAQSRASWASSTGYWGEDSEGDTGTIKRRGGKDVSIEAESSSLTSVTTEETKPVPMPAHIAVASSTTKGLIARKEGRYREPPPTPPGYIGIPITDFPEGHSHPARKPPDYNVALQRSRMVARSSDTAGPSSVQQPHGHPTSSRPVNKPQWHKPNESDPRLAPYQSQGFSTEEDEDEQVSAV
Description: The small GTPase Ras controls the MAPK pathway and exerts its effects on cellular processes primarily through this pathway. MAPK is a downstream kinase of Ras and thus, Ras activation leads to MAPK activation (FIG. 6A). Therefore, we show the GRF4 effects on MAPK activation using assays in which levels of active MAPK in cells is determined using antibodies recognizing phosphorylated (active) MAPK.

B1: ΔcNMP-BD: Mutant GRF4 with deletion of the cNMP-BD (residue 134-254) (protein)
chain: T1 sequence (Q9Y4G8 with tags, fused parts or gaps DEL134-254)
In the case of B1, the “8-Br-cAMP-mediated activation of Ras via the construct, compared with wt-GRF4” value (Ras) is reported as “almost abolished” and the “Activation of Ras and MAPK by the expressed mutant” value (GRF4) is reported as “constitutively”.
